Results published in patent publication US7648964B2, “Use of lacritin in promoting ocular cell survival” (University of Virginia Patent Foundation, priority 2004, dated 2010).

How the values were obtained:
Details in all cases: 0-30 nM lacritin
[1] = ECM binding ELISA
Description: (§1) Binding studies were carried out in 96 well plates coated with 10 μg/well of collagen IV, laminin-1, entactin/nidogen-1, collagen I, fibronectin, vitronectin, EGF, heparin or BMS. Wells were washed, blocked (PBS-T), incubated with 0-30 nM lacritin (in PBS-T containing 1% BSA) for 1 hr (4° C.), washed and detected with anti-lacritin antibody (1/1000) by ELISA.

[2] = target: EGF (Homo sapiens, UniProt P01133); test: ECM binding ELISA
Sequence of EGF (P01133 971-1023 limits assumed, species assumed): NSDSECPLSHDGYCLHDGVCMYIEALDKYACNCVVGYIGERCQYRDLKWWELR
Description: as §1

[3] = target: T1, nidogen/entactin (Homo sapiens, UniProt P14543); test: ECM binding ELISA
T1 sequence (P14543 29-1247): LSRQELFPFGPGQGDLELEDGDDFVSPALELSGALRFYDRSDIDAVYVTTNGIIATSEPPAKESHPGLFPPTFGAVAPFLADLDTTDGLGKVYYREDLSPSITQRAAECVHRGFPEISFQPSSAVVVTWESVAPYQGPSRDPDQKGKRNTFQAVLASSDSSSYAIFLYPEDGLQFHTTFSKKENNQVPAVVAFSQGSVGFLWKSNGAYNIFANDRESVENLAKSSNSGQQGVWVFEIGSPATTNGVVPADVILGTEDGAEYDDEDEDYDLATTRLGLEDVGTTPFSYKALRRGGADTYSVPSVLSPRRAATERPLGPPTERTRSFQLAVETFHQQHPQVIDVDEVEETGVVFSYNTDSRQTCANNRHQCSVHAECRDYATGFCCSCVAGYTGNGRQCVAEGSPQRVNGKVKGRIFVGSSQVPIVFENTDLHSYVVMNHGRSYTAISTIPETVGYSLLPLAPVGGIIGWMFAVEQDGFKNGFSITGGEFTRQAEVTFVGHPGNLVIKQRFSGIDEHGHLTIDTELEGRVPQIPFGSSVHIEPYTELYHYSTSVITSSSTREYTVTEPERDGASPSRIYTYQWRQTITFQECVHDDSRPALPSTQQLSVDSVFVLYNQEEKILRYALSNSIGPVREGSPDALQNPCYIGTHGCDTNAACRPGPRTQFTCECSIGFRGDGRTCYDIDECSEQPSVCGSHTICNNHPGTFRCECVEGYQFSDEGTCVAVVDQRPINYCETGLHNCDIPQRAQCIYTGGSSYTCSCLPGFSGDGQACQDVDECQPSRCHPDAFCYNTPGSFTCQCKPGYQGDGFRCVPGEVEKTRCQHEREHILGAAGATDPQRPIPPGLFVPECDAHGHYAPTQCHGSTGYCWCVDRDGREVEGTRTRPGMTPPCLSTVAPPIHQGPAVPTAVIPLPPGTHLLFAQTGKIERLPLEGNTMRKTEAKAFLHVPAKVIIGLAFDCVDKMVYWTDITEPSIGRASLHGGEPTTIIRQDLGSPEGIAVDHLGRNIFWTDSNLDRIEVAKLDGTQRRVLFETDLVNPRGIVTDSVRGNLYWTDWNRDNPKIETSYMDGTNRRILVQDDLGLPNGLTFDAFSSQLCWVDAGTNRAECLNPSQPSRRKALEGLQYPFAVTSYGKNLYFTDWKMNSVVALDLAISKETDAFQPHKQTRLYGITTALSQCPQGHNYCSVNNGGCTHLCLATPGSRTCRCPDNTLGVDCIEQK
Description: as §1

[4] = target: T2, vitronectin (Homo sapiens, UniProt P04004); test: ECM binding ELISA
T2 sequence (P04004 20-478): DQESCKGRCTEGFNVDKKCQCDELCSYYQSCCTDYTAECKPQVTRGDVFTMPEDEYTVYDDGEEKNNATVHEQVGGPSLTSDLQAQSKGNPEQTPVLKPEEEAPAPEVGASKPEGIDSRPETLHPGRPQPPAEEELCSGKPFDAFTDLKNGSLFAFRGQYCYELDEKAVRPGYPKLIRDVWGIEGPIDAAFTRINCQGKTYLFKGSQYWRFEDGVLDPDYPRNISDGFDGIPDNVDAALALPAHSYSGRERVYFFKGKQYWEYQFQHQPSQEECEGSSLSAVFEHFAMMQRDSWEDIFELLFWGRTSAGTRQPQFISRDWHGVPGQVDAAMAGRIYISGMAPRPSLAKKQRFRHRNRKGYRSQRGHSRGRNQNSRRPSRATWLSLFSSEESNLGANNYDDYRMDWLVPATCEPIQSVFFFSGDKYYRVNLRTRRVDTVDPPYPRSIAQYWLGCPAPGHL
Description: as §1

B1: lacritin: recombinant human lacritin from E. coli; mature 119 residue fragment (SEQ ID NO:10) of native lacritin SEQ ID NO:4 (protein, listed as Homo sapiens)
chain: EDASSDSTGADPAQEAGTSKPNEEISGPAEPASPPETTTTAQETSAAAVQGTAKVTSSRQELNPLKSIVEKSILLTEQALAKAGKGMHGGVPGGKQFIENGSEFAQKLLKKFSLLKPWA
In the case of B1, the binding to heparin [1] is reported as “No binding”, the “binding to EGF” value [2] is reported as “No binding” and the binding to nidogen/entactin [3] is reported as “strong basement membrane binding”. The binding to vitronectin [4] was “remarkable avidity”.
